Results published in PMC3817697, “Building a pseudo-atomic model of the anaphase-promoting complex” (Acta Crystallographica Section D: Biological Crystallography, 2013).

B1: Cdc16 (Cut9) subunit of recombinant S. pombe APC/C (natural protein, UniProt P41889 1-671, looked up)
chain: MVVKRTQTDSRMQSTPGNHNHPDAHANAAYMTPPSMGALNANNSNSQLSTLTISPMTYLANNTSTDGSFLKERNAQNTDSLSREDYLRLWRHDALMQQQYKCAAFVGEKVLDITGNPNDAFWLAQVYCCTGDYARAKCLLTKEDLYNRSSACRYLAAFCLVKLYDWQGALNLLGETNPFRKDEKNANKLLMQDGGIKLEASMCYLRGQVYTNLSNFDRAKECYKEALMVDAKCYEAFDQLVSNHLLTADEEWDLVLKLNYSTYSKEDAAFLRSLYMLKLNKTSHEDELRRAEDYLSSINGLEKSSDLLLCKADTLFVRSRFIDVLAITTKILEIDPYNLDVYPLHLASLHESGEKNKLYLISNDLVDRHPEKAVTWLAVGIYYLCVNKISEARRYFSKSSTMDPQFGPAWIGFAHSFAIEGEHDQAISAYTTAARLFQGTHLPYLFLGMQHMQLGNILLANEYLQSSYALFQYDPLLLNELGVVAFNKSDMQTAINHFQNALLLVKKTQSNEKPWAATWANLGHAYRKLKMYDAAIDALNQGLLLSTNDANVHTAIALVYLHKKIPGLAITHLHESLAISPNEIMASDLLKRALEENSLTSGFLNSKYVFEDEVSEYMQQSNLNTSDKSMSMEDQSGKVTESVNDRTQVLYADSRSEMMMDDIEGNVSEQR
notes: Cdc16 (S. pombe name Cut9; human Apc6), TPR subunit of the S. pombe anaphase-promoting complex; Subunit within the recombinant S. pombe APC/C used for cryo-EM; the insect-cell MultiBac system is described only for the budding-yeast APC/C; also called Apc6; source: recombinant S. pombe APC/C

Tests used:
[1] = target: B1; assay: cryo-EM structure; recombinant S. pombe APC/C, single-particle cryo-EM, about 12 Å, still being refined; atomic models of subunits docked into the density and refined as rigid bodies with URO; conditions: both partners purified
[2] = target: the molecule itself; assay: as above

| binding result [1] | Binder | binding result [2] |
| --- | --- | --- |
| binds | Cdc27 (Nuc2) subunit of recombinant S. pombe APC/C (natural protein, UniProt P10505 1-665, looked up, Cdc27 (S. pombe name Nuc2; human Apc3), TPR subunit of the S. pombe anaphase-promoting complex; Subunit within the recombinant S. pombe APC/C used for cryo-EM; also called Apc3; source: recombinant S. pombe APC/C) MTDRLKCLIWYCIDNQNYDNSIFYSERLHAIEDSNESLYLLAYSHFLNLDYNIVYDLLDRVISHVPCTYLFARTSLILGRYKQGISAVEACRSNWRSIQPNINDSISSRGHPDASCMLDVLGTMYKKAGFLKKATDCFVEAVSINPYNFSAFQNLTAIGVPLDANNVFVIPPYLTAMKGFEKSQTNATASVPEPSFLKKSKESSSSSNKFSVSESIANSYSNSSISAFTKWFDRVDASELPGSEKERHQSLKLQSQSQTSKNLLAFNDAQKADSNNRDTSLKSHFVEPRTQALRPGARLTYKLREARSSKRGESTPQSFREEDNNLMELLKLFGKGVYLLAQYKLREALNCFQSLPIEQQNTPFVLAKLGITYFELVDYEKSEEVFQKLRDLSPSRVKDMEVFSTALWHLQKSVPLSYLAHETLETNPYSPESWCILANCFSLQREHSQALKCINRAIQLDPTFEYAYTLQGHEHSANEEYEKSKTSFRKAIRVNVRHYNAWYGLGMVYLKTGRNDQADFHFQRAAEINPNNSVLITCIGMIYERCKDYKKALDFYDRACKLDEKSSLARFKKAKVLILLHDHDKALVELEQLKAIAPDEANVHFLLGKIFKQMRKKNLALKHFTIAWNLDGKATHIIKESIENLDIPEENLLTETGEIYRNLET | binds |
| binds | Cdc23 (Cut23) subunit of recombinant S. pombe APC/C (natural protein, UniProt O94556 1-565, looked up, Cdc23 (S. pombe name Cut23; human Apc8), TPR subunit of the S. pombe anaphase-promoting complex; Subunit within the recombinant S. pombe APC/C used for cryo-EM; also called Apc8; source: recombinant S. pombe APC/C) MTVSLNTMMGVDGLEDQEQLREIRNCLLKCISECSERGLVYAVRWAAEMLNGMNPIEMEHIPFSSTPTGEFDLDPDMANEKLLEVEEKNIYLLAKSYFDCKEFERAAYTLQNCKSSKSIFLRLYSKYLAGEKKSEEENETLLNTNLTLSSTNREFYYISEVLESLHYQGNKDPYLLYLSGVVYRKRKQDSKAIDFLKSCVLKAPFFWSAWLELSLSIDSLETLTTVVSQLPSTHIMTKIFYVYASHELHQVNSSAYEKLAEAEIIFPNSRYLKTQRALLTYDSRDFDEAESLFENILTNDPYRLDDMDTYSNVLFVLENKSKLGFLAQVASSIDKFRPETCSIIGNYYSLLSEHEKAVTYFKRALQLNRNYLSAWTLMGHEYVELKNTHAAIESYRLAVDVNRKDYRAWYGLGQTYEVLDMHFYALYYFQRATALRPYDQRMWQALGNCYEKIDRPQEAIKSYKRALLGSQTNSSILVRLGNLYEELQDLNSAASMYKQCIKTEETEISPETIKARIWLARWELGKKNYREAELYLSEVLNGDLELEEAKALLRELRSRMEHSYD | binds |
|  | B1 | binds |
| binds | Cdc26 (Hcn1) subunit of recombinant S. pombe APC/C (natural protein, UniProt O13916 1-80, looked up, Cdc26 (S. pombe name Hcn1), TPR accessory subunit of the S. pombe anaphase-promoting complex; Subunit within the recombinant S. pombe APC/C used for cryo-EM; source: recombinant S. pombe APC/C) MLRRNPTAIQITAEDVLAYDEEKLRQTLDSESTTEEALQKNEESTRLSPEKKKIIRERRIGITQIFDSSMHPSQGGAAQS |  |
